Experiments:
[1] = molecular target: T1, envelope (E) protein of DENV4 (Dengue virus 4, strain H241, UniProt Q58HT7); experiment: Western blot; conditions: one partner purified
T1 construct: also called E glycoprotein; source: DENV4-infected Vero cells, in lysate

[2] = molecular target: T2, prM protein of the non-mutated prM-E construct (pCMV-prM-E) (Dengue virus 2 strain New Guinea C, UniProt P14340); experiment: Western blot; conditions: one partner purified
T2 construct: also called prM of pCMV-prM-E; source: HEK293-T cells, transfected, in lysate

[3] = molecular target: T3, envelope (E) protein of DENV3 (Dengue virus 3, strain H87, UniProt P27915); experiment: Western blot; conditions: one partner purified
T3 construct: also called E glycoprotein; source: DENV3-infected Vero cells, in lysate

prM protein of DENV3 = prM protein of DENV3 (Dengue virus 3, strain H87, UniProt P27915); experiment: Western blot; conditions: one partner purified
[4] = molecular target: Dengue 3 (DENV3) strain H87, whole virus (Dengue virus 3, strain H87, UniProt P27915, strain); experiment: ELISA; conditions: both partners purified
[5] = molecular target: Dengue 1 (DENV1) strain Hawaii, whole virus (Dengue virus 1, strain Hawaii, UniProt B5AGU1, strain); experiment: ELISA; conditions: both partners purified
[6] = molecular target: Dengue 2 (DENV2), whole virus (Dengue virus 2, strain New Guinea C (or …, UniProt P14340, strain)); experiment: ELISA; conditions: both partners purified
[7] = molecular target: Dengue 4 (DENV4) strain H241, whole virus (Dengue virus 4, strain H241, UniProt Q58HT7, strain); experiment: ELISA; conditions: both partners purified

B1: D29 Fab-IgG (antibody, V domains shown)
VH: QMQLVQSGGGVVQPGRSLRLSCAASGFTFSSYAMHWVRQAPGKGLEWVAGTSYDGSNKYYADSVKGRFTISGDNSKNTVYLQMNSLRAEDTAVYYCARAHSSGWYDAFDIWGQGTTVTVSS
VL: SYVLTQPPSVSVSPGQAASITCSGDKLGDKYAWWYQQKPGQSPVMVIHQDDKRPSGIPERFSGSNSGNTATLTITGTQAMDEADYYCQAWDRTTVVFGGGTKLTVL
notes: source: HEK 293 T cells (Fab from a non-immunized human Fab phage library, converted into human IgG format)
B1: binds [1]; binds [2]; binds [3]. The binding result (prM protein of DENV3) was “binds”, the Kd [4] was 114 pM and the Kd [5] was 90.5 pM. The Kd [6] was 86.9 pM and the Kd [7] was 108 pM.

— paper PMC3317930, “A Human PrM Antibody That Recognizes a Novel Cryptic Epitope on Dengue E Glycoprotein” (PLoS ONE, 2012)
